# Test results as given in the supplement of paper PMC10724198.
# ± gives the standard deviation of the averaged measurements.
# Columns and labels:
# [1] = test system: Saccharomyces cerevisiae; assay: protein stability index of tFT-peptide fusion (C-terminal peptide) (PSI (0-1 scale)); higher = more stable (slower turnover); conditions: genetic background: wild type; temperature: 30 C
# [2] = test system: Saccharomyces cerevisiae; assay: as above
# Protocol: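 MPS profiling in S. cerevisiae of the tFT-X12 degron library: putative degron peptides plus stable controls, 12 aa, fused to the C-terminus of a sfGFP-mCherry timer. Cells are FACS-sorted into 8 mCherry/sfGFP bins and deep-sequenced. PSI runs from 0 (unstable) to 1 (stable). Backgrounds are wild type, das1Δ and doa10Δ at 30 °C, and wild type, das1Δ, cdc34-1 and cdc53-1 at 37 °C; 2-3 technical replicates each.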
# [3] = genetic background: cdc34-1, temperature: 37 C
# [4] = genetic background: cdc53-1, temperature: 37 C
# [5] = genetic background: das1 deletion, temperature: 30 C
# [6] = genetic background: das1 deletion, temperature: 37 C
# [7] = genetic background: doa10 deletion, temperature: 30 C
# [8] = genetic background: wild type, temperature: 30 C
# [9] = genetic background: wild type, temperature: 37 C
# 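Note: PSI is a weighted mean of sequencing reads over stability bins, variants kept only with over 10 reads, mCherry proximal and sfGFP distal, peptide attached via GGGS linker.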
Sequence,protein stability index [1],"protein stability index [2, 3]","protein stability index [2, 4]","protein stability index [2, 5]","protein stability index [2, 6]","protein stability index [2, 7]","protein stability index [2, 8]","protein stability index [2, 9]"
LLVRYYLFYVLV,0.351 ± 0.013,0.357 ± 0.018,0.442 ± 0.02,0.316 ± 0.048,0.477 ± 0.014,0.255 ± 0.0062,0.243 ± 0.024,0.391 ± 0.0082
LMLISFLFLSLL,0.466 ± 0.056,0.487 ± 0.053,0.461 ± 0.021,0.448 ± 0.023,0.529 ± 0.031,0.568 ± 0.031,0.397 ± 0.023,0.48698 ± 5.5e-05
LPALPFPIPTFA,0.243 ± 0.053,0.0567 ± 0.00074,0.0586 ± 0.0097,0.186 ± 0.027,0.201 ± 0.005,0.134 ± 0.0084,0.173 ± 0.031,0.179 ± 0.01
LPLSPPPLPSSR,0.432 ± 0.032,0.6697 ± 0.0028,0.72639 ± 0.00044,0.634 ± 0.019,0.704 ± 0.014,0.639 ± 0.022,0.663 ± 0.032,0.675 ± 0.018
LPSLPPPPPPPP,0.498 ± 0.039,0.675 ± 0.071,0.717 ± 0.018,0.673 ± 0.044,0.732 ± 0.024,0.654 ± 0.025,0.647 ± 0.016,0.687 ± 0.0092
LPVSLWLVCSFF,0.324 ± 0.0038,0.524 ± 0.009,0.543 ± 0.02,0.432 ± 0.023,0.5682 ± 0.00058,0.345 ± 0.023,0.358 ± 0.03,0.5283 ± 0.0021
LQLGFCFVAQFI,0.509 ± 0.03,0.6346 ± 0.0062,0.675 ± 0.02,0.491 ± 0.035,0.6394 ± 0.0044,0.462 ± 0.03,0.476 ± 0.024,0.607 ± 0.02
LQNCRVSVLLGW,0.367 ± 0.033,0.5443 ± 0.0023,0.616 ± 0.011,0.485 ± 0.019,0.6275 ± 0.0042,0.229 ± 0.0028,0.246 ± 0.036,0.4536 ± 0.0025
LRFYLLTPPSPA,0.54 ± 0.061,0.59 ± 0.022,0.6288 ± 0.0054,0.481 ± 0.024,0.631 ± 0.0089,0.469 ± 0.017,0.494 ± 0.02,0.586 ± 0.029
LRKARLFLKAKC,0.323 ± 0.03,0.645 ± 0.031,0.678 ± 0.041,0.497 ± 0.032,0.705 ± 0.0046,0.17 ± 0.022,0.219 ± 0.017,0.384 ± 0.0047
LRLCMVFAWFLT,0.337 ± 0.023,0.388 ± 0.011,0.508 ± 0.039,0.351 ± 0.029,0.493 ± 0.021,0.1836 ± 0.00086,0.216 ± 0.03,0.3924 ± 0.0028
LRLEFRTNWFLQ,0.2 ± 0.0067,0.557 ± 0.042,0.7363 ± 0.0049,0.654 ± 0.015,0.752 ± 0.017,0.101 ± 0.016,0.132 ± 0.0047,0.402 ± 0.0072
LRVVLVEWMCVV,0.33 ± 0.03,0.248 ± 0.017,0.295 ± 0.036,0.274 ± 0.037,0.418 ± 0.0054,0.172 ± 0.011,0.21 ± 0.023,0.358 ± 0.011
LRVVVGLCMCVL,0.453 ± 0.015,0.4743 ± 0.00078,0.503 ± 0.007,0.396 ± 0.024,0.516 ± 0.0088,0.385 ± 0.014,0.395 ± 0.019,0.4884 ± 0.0035
LSCCIVLLIIFV,0.338 ± 0.055,0.245 ± 0.021,0.35 ± 0.021,0.27 ± 0.026,0.39762 ± 0.00019,0.253 ± 0.0077,0.262 ± 0.029,0.341 ± 0.025
LSFLLLLGCFGS,0.466 ± 0.076,0.5966 ± 0.0035,0.6236 ± 0.0046,0.476 ± 0.019,0.59 ± 0.027,0.453 ± 0.017,0.462 ± 0.014,0.589 ± 0.018
LSGVLFSLIRFY,0.383 ± 0.036,0.587 ± 0.06,0.636 ± 0.011,0.517 ± 0.03,0.696 ± 0.008,0.274 ± 0.015,0.287 ± 0.032,0.495 ± 0.015
LSLWLFRILSVR,0.4439 ± 0.0026,0.4052 ± 0.0027,0.451 ± 0.017,0.335 ± 0.023,0.4987 ± 0.0027,0.342 ± 0.0045,0.341 ± 0.012,0.4906 ± 0.0043
LSPPLRHRLTPP,0.715 ± 0.047,0.675 ± 0.014,0.729 ± 0.022,0.687 ± 0.032,0.712 ± 0.029,0.67109 ± 0.00013,0.669 ± 0.015,0.6731 ± 0.0065
LSVRLYRTVFLV,0.148 ± 0.02,0.359 ± 0.044,0.603 ± 0.016,0.53 ± 0.02,0.6697 ± 0.0046,0.0603 ± 0.012,0.0721 ± 0.0073,0.0864 ± 0.023

Sequence,protein stability index [1],"protein stability index [2, 3]","protein stability index [2, 4]","protein stability index [2, 5]","protein stability index [2, 6]","protein stability index [2, 7]","protein stability index [2, 8]","protein stability index [2, 9]"
LSVYGFYKMPAG,0.502 ± 0.031,0.501 ± 0.024,0.5271 ± 0.0027,0.487 ± 0.011,0.561 ± 0.018,0.521 ± 0.032,0.491 ± 0.0073,0.5368 ± 0.0015
LVAGFVFIFFYR,0.372 ± 0.059,0.356 ± 0.053,0.488 ± 0.021,0.339 ± 0.033,0.49 ± 0.018,0.298 ± 0.0043,0.319 ± 0.022,0.46 ± 0.0078
LVCLTPPPSPFS,0.412 ± 0.033,0.689 ± 0.021,0.799 ± 0.065,0.323 ± 0.04,0.5136 ± 0.0026,0.313 ± 0.009,0.332 ± 0.016,0.486 ± 0.021
LVDPFAALRHVV,0.246 ± 0.0088,0.624 ± 0.026,0.768 ± 0.0078,0.709 ± 0.016,0.71 ± 0.013,0.15 ± 0.014,0.173 ± 0.024,0.3825 ± 0.0015
LVGWSWRGWFVV,0.139 ± 0.025,0.512 ± 0.029,0.6899 ± 0.0065,0.6201 ± 0.0015,0.769 ± 0.015,0.0763 ± 0.011,0.094 ± 0.029,0.112 ± 0.012
LVIFSLLFSFSH,0.32 ± 0.028,0.22 ± 0.011,0.325 ± 0.047,0.212 ± 0.032,0.394 ± 0.018,0.194 ± 0.0075,0.232 ± 0.015,0.3837 ± 0.00069
LVLVVFCPLWFW,0.43567 ± 0.00031,0.483 ± 0.035,0.581 ± 0.024,0.401 ± 0.037,0.5794 ± 0.0036,0.4422 ± 0.00092,0.388 ± 0.0094,0.56 ± 0.024
LVPLSLLLCFFV,0.3058 ± 0.0028,0.515 ± 0.027,0.5647 ± 0.0036,0.411 ± 0.028,0.551 ± 0.0063,0.178 ± 0.0019,0.205 ± 0.015,0.354 ± 0.0088
LWAPFWVSRVTA,0.347 ± 0.012,0.481 ± 0.017,0.513 ± 0.0085,0.408 ± 0.035,0.5677 ± 0.0039,0.21 ± 0.004,0.247 ± 0.026,0.42 ± 0.0086
LWGLVWGGVWGV,0.439 ± 0.015,0.683 ± 0.039,0.722 ± 0.013,0.564 ± 0.014,0.729 ± 0.012,0.5683 ± 0.0018,0.573 ± 0.015,0.705 ± 0.0096
LYRIETLFMRAQ,0.383 ± 0.021,0.353 ± 0.029,0.41 ± 0.022,0.435 ± 0.035,0.407 ± 0.035,0.389 ± 0.059,0.358 ± 0.019,0.354 ± 0.019
LYVQSVCFSVPR,0.422 ± 0.012,0.463 ± 0.024,0.537 ± 0.017,0.445 ± 0.021,0.5091 ± 0.002,0.497 ± 0.052,0.431 ± 0.012,0.486 ± 0.0089
MALAVRVVLCGA,0.236 ± 0.034,0.0507 ± 0.0085,0.0673 ± 0.038,0.165 ± 0.026,0.192 ± 0.0025,0.116 ± 0.029,0.153 ± 0.0088,0.168 ± 0.0051
MALAVRVVRCGA,0.353 ± 0.024,0.406 ± 0.0042,0.422 ± 0.018,0.302 ± 0.025,0.4769 ± 0.0017,0.227 ± 0.043,0.233 ± 0.038,0.379 ± 0.033
MGVTVRVEGIRA,0.369 ± 0.084,0.52 ± 0.036,0.517 ± 0.013,0.368 ± 0.03,0.55332 ± 0.0004,0.3374 ± 0.00071,0.383 ± 0.013,0.537 ± 0.015
MLIAISASAARF,0.4184 ± 0.00049,0.452 ± 0.037,0.5819 ± 0.0017,0.417 ± 0.027,0.501 ± 0.016,0.45 ± 0.02,0.44 ± 0.034,0.498 ± 0.0095
MLLFVSCCVFLF,0.206 ± 0.063,0.134 ± 0.021,0.185 ± 0.011,0.202 ± 0.038,0.292 ± 0.0093,0.157 ± 0.0093,0.169 ± 0.032,0.219 ± 0.019
MMYTLSMLLRLR,0.513 ± 0.047,0.43 ± 0.014,0.5 ± 0.0093,0.506 ± 0.016,0.528 ± 0.015,0.64799 ± 0.00045,0.52 ± 0.02,0.546 ± 0.0085
MPQSLKKMVFLA,0.1516 ± 0.0014,0.431 ± 0.057,0.628 ± 0.022,0.61 ± 0.032,0.6621 ± 0.005,0.0709 ± 0.025,0.0847 ± 0.0032,0.0875 ± 0.024
